Source: patent publication US20210253725A1 (BIONTECH, published 2021)

T1: CD27 expressed on the cell surface of HT1080_CD27 cells (human, UniProt P26842 20-260)
T1 construct: whole, on cells; species not restated for the HT1080 transfectant
T1 sequence (looked up): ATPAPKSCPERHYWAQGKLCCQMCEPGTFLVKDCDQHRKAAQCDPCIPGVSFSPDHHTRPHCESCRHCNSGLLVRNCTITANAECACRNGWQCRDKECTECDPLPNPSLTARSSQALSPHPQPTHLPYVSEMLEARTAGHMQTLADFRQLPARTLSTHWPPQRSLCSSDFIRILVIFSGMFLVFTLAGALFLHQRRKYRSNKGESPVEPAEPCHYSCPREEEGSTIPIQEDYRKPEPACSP

T2: CD27 protein (His-tagged, Sino Biological Inc. 10039-H08B1) (human, UniProt P26842 20-192)
T2 construct: bought protein coated on ELISA plates; also called TNFRSF7; not shown: His tag
T2 sequence (looked up): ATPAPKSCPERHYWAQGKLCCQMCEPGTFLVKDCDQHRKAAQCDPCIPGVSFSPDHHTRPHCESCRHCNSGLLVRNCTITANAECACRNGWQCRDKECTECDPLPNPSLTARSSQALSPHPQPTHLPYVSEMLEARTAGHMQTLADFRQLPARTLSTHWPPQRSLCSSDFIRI


How the values were obtained:
[1] = molecular target: T1, CD27 expressed on the cell surface of …; experiment: HT1080_CD27 cells, imaging
[2] = molecular target: T2, CD27 protein (His-tagged, Sino …); experiment: ELISA, coated His-tagged CD27
[3] = molecular target: T1, CD27 expressed on the cell surface of …; experiment: cell-based or functional assay
Further: test concentration or dose not given here.

| Binder | Cellular binding assay [RFU] [1] [RFU] | ELISA [abs. corr.] [2] [abs. corr.] | Functional assay Cross-linked by F(ab′)2 fragment IL-8 [3] [abs. corr.] | Functional assay IL-8 [3] [abs. corr.] |
| --- | --- | --- | --- | --- |
| P018.S.04.A.E05 (antibody, V domains shown, V regions on human Ig constant parts; also called AB27_76) VH: QSLEESGGDLVKPGASLTLTCTASGFSFSSDYYMCWVRQAPGKGLEWIACISAGSSGSIYYASWAKGRFTISKTSSTTVTLQMTSLTAADTATYFCAREASDSIYYPIFNLWGPGTLVTVSS VL: AAVLTQTPSPVSAAVGGTVSISCQSSKSVYNNNALSWFQQKPGQPPKLLIYGASTLPSRVPSRFKGSGSGTQFTLTISDVQSDDAATYYCIGGYSSSSDTNAFGGGTEVVVK | 319 | 3.11 | 1.77 | 0.747 |
| P018.S.01.A.E02 (antibody, V domains shown, V regions on human Ig constant parts; also called AB27_14) VH: QSVEESGGRLVTPGTPLTLTCTASGFSLSNYYMSWVRQAPGKGLEWIGIISTYGDTYYATWAKGRFTISKTSTTVDLKITSPTTEDTATYFCARGSSDTYYTYFNLWGPGTLVTVSS VL: DIVMTQTPASVEAAVGGTVTIKCQASQKIYNNLAWYQQKPGQPPKLLIYSASTLASGVPSRFKGSGSGTEFTLTISDLESADAATYYCQSYGVSANTISYGLPFGGGTEVVVK | 360 | 3.13 | 1.17 | 0.276 |
| P018.S.05.A.A06 (antibody, V domains shown, V regions on human Ig constant parts; also called AB27_82) VH: QSLEESGGRLVTPGTPLTLTCTVSGIDLNNNAMSWVRQAPGEGLEWIGIISTAGTTTYASWTKGRFTISKTSTTVDLKITSPTTEDTATYFCARAAYFSYGYINLWGQGTLVTVSS VL: DIVMTQTPASVEAAVGGTVTIKCQASQNIGNALAWYQQKSGQPPKLLIYSASTLASGVPSRFKGSGSGTEFTLTISDLESADATTYFCQSYVYSDGNVFGGGTEVVVK | 374 | 3.11 | 1.58 | 0.324 |
| P018.S.03.A.D05 (antibody, V domains shown, V regions on human Ig constant parts; also called AB27_50) VH: QSLEESGGRLVTPGTPLTLTCTASGFSLSSYYITWVRQAPGEGLEWIGTISTAGNTYFASWANGRFTISRTSTTVDLKMTSPTTEDTATYFCARDGAGDSNYYRNLWGQGTLVTVSS VL: DIVLTQTPASVEAAVGGTVTIKCQASQSIDRFLAWYQQKPGQPPKLLIYDASDLASGVPSRFSGSGYGTEFTLTISGVQSEDAATYYCQQGYYISDIHNVFGGGTEVVVK | 324 | 3.12 | 1.5 | 0.5 |

Second part, the binder after the results:

| Cellular binding assay [RFU] [1] [RFU] | ELISA [abs. corr.] [2] [abs. corr.] | Functional assay Cross-linked by F(ab′)2 fragment IL-8 [3] [abs. corr.] | Functional assay IL-8 [3] [abs. corr.] | Binder |
| --- | --- | --- | --- | --- |
| 400 | 3.12 | 1.68 | 0.158 | P018.S.09.A.F05 (antibody, V domains shown, V regions on human Ig constant parts; also called AB27_157) VH: QEQLEESGGDLVKPGASLTLTCTASGFSFSSNYCMCWVRQAPGKGLEWIACICAGASGATYYASWAKGRFTVSKTSSTTVTLQMTSLTGADTATYFCARYDNSGWGDFKLWGPGTLVTVSS VL: DIVMTQTPASVSEPVGGTVTINCQASQNIGTYLAWYQQKPGQRPKLLIYAASYLASGVPSRFKGSGSGTEVALTISDLESADAATYYCQNTYYDSPVVGGAFGGGTEVVVK |
| 338 | 3.12 | 1.34 | 0.467 | P018.S.09.A.G06 (antibody, V domains shown, V regions on human Ig constant parts; also called AB27_159) VH: QSVEESGGRLVTPGTPLTLTCTASGFSLSNYHMSWVRQAPGKGLEWIGIIYAGSDSTWYASWAKGRFTISKTSTTVDLKITSPTTEDTATYFCARQPGGGASDTQLDLWGQGTLVTVSS VL: AAVLTQTASPVSAAVGGTVTINCQSSQNIFDNNQLSWFQHKSGQSPKLLIYRASTLASGVPSRFKGSGSGTQFTLTISDVQSDDAATYYCLGGYSSSSDTVFGGGTEVVVK |
| 249 | 3.11 | 1.91 | 0.47 | P018.S.10.A.B02 (antibody, V domains shown, V regions on human Ig constant parts; also called AB27_167) VH: QSVEESGGRLVTPGGSLTLSCTVNGFSLSSHGVSWVRQAPGKGLEWIGIIYVISGHAYYASWAKGRFTISKTSTTVDLKIASPTTEDTATYFCARGNYGSDSGPNFTRLDLWGQGTLVTVSS VL: AQVLTQTPSPVSATVGGTLTINCQASQSLYNNDYLAWYQQKPGQPPKLLIYLASTLASGVSSRFKGSGSGTQFTLTISGVQSDDAATYYCQGEFSCSSGDCLAFGGGTEVVVK |
